The target in series [1] is T1, Synthetic peptide substrate GLTNIKTEEISEISY-EVEFRWKK
T1 chain: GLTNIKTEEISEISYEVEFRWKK

For series [2], the target named is T2, Synthetic peptide substrate SEISY-EVEFRWKK
T2 chain: SEISYEVEFRWKK

For series [3], the target named is T3, Peptide substrate EIDL-MVLDWHDR
T3 chain: EIDLMVLDWHDR

B1: CHO-BACE, recombinant human BACE construct Asp2-2LΔTM-His6 expressed in CHO cells (protein)
chain: TQHGIRLPLRSGLGGAPLGLRLPRETDEEPEEPGRRGSFVEMVDNLRGKSGQGYYVEMTVGSPPQTLNILVDTGSSNFAVGAAPHPFLHRYYQRQLSSTYRDLRKGVYVPYTQGKWEGELGTDLVSIPHGPNVTVRANIAAITESDKFFINGSNWEGILGLAYAEIARPDDSLEPFFDSLVKQTHVPNLFSLQLCGAGFPLNQSEVLASVGGSMIIGGIDHSLYTGSLWYTPIRREWYYEVIIVRVEINGQDLKMDCKEYNYDKSIVDSGTTNLRLPKKVFEAAVKSIKAASSTEKFPDGFWLGEQLVCWQAGTTPWNIFPVISLYLMGEVTNQSFRITILPQQYLRPVEDVATSQDDCYKFAISQSSTGTVMGAVIMEGFYVVFDRARKRIGFAVSACHVHDEFRTAAVEGPFVTLDMEDCGYNIPQTDESHHHHHH
As usually defined, the Km is the substrate concentration at which the rate is half of its maximum. As a reminder, the kcat is the number of substrate molecules converted per active site and unit of time at saturation. With B1, in series [1], the Km was 4.9 µM, the Vmax (µmol min^-1mg^-1) was determined as 0.435, the kcat is 0.345 s⁻¹ and the kcat/Km turned out to be 0.0704 sec^-1µM^-1. In addition, in series [2], the Km came to 52 µM, the Vmax (µmol min^-1mg^-1) was determined as 0.294, the kcat turned out to be 0.233 s⁻¹ and the kcat/Km came out at 0.0045 sec^-1µM^-1. Further, in series [3], the Michaelis-Menten constant (Km) stood at 12 µM, the Vmax (µmol min^-1mg^-1) is 0.0196, the kcat came out at 0.0155 s⁻¹ and the kcat/Km was 0.0013 sec^-1µM^-1.

B2: pQE70-BACE (M)R36GSFVE...QTDES432RS(His)6 (protein)
chain: MRGSFVEMVDNLRGKSGQGYYVEMTVGSPPQTLNILVDTGSSNFAVGAAPHPFLHRYYQRQLSSTYRDLRKGVYVPYTQGKWEGELGTDLVSIPHGPNVTVRANIAAITESDKFFINGSNWEGILGLAYAEIARPDDSLEPFFDSLVKQTHVPNLFSLQLCGAGFPLNQSEVLASVGGSMIIGGIDHSLYTGSLWYTPIRREWYYEVIIVRVEINGQDLKMDCKEYNYDKSIVDSGTTNLRLPKKVFEAAVKSIKAASSTEKFPDGFWLGEQLVCWQAGTTPWNIFPVISLYLMGEVTNQSFRITILPQQYLRPVEDVATSQDDCYKFAISQSSTGTVMGAVIMEGFYVVFDRARKRIGFAVSACHVHDEFRTAAVEGPFVTLDMEDCGYNIPQTDESRSHHHHHH
Consider B2, for which, in series [1], the Km is 5.4 µM, the Vmax (µmol min^-1mg^-1) worked out at 0.4, the turnover number (kcat) came out at 0.317 s⁻¹ and the kcat/Km came out at 0.0581 sec^-1µM^-1. In addition, in series [2], the Km is 55.5 µM, the Vmax (µmol min^-1mg^-1) was 0.345, the kcat was 0.273 s⁻¹ and the kcat/Km stood at 0.0049 sec^-1µM^-1.

The values above are taken from patent US7186539.
